In patent publication US20150344570A1 (published 2015):

T1: FcγRIIb extracellular domain with C-terminal His tag (human, UniProt P31994 43-217)
T1 construct: extracellular domain; also called FcgRIIb; 2b
T1 sequence (looked up): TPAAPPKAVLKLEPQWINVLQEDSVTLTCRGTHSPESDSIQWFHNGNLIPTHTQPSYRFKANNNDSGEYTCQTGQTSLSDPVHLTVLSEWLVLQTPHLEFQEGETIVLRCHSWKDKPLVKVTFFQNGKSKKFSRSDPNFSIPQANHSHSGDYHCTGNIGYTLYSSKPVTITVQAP


Each binder was assayed against T1, FcγRIIb extracellular domain with … (assay: SPR (Biacore), relative binding).
Description: Analysis of interaction between objective antibody and the FcγR was carried out using Biacore T100 (GE Healthcare). HBS-EP+ (GE Healthcare) was used as the running buffer, and the measurement temperature was set to 25° C. Chips produced by immobilizing the antigen peptide by the amine coupling method to a Series S Sencor Chip CM5 (GE Healthcare), or alternatively, chips produced by allowing preliminarily biotinylated antigen peptides to interact with and immobilize onto a Series S Sensor Chip SA (certified) (GE Healthcare) were used. Antibodies of interest were captured onto an antigen peptide-immobilized chip, and allowed to interact to each FcγR diluted with running buffer. To regenerate and repeatedly use the chip, the antibodies captured on the chip were washed off by reacting 10 mM glycine-HCl, pH 1.5.

| He/Con_2b | Binder |
| --- | --- |
| 148 % of HeCon Ab GpH7-A5/GpH7-B3/GpL16-k0 | GpH7-A5/GpH7-B3 variant G237_08L/GpL16-k0 (antibody, human IgG1, kappa, also called He Ab G237_08L) heavy 1: not shown heavy 2: not shown light: DIVMTQSPLSLPVTPGEPASISCQASESLVHSNRNTYLHWYLQKPGQSPQLLIYKVSNRFSGVPDRFSGSGSGTDFTLKISRVEAEDVGVYYCSQNTHVPPTFGQGTKVEIERTVAAPSVFIFPPSDEQLKSGTASVVCLLNNFYPREAKVQWKVDNALQSGNSQESVTEQDSKDSTYSLSSTLTLSKADYEKHKVYACEVTHQGLSSPVTKSFNRGEC |
| 107 % of HeCon Ab GpH7-A5/GpH7-B3/GpL16-k0 | GpH7-A5/GpH7-B3 variant I336_08L/GpL16-k0 (antibody, human IgG1, kappa, also called He Ab I336_08L) heavy 1: not shown heavy 2: not shown light: DIVMTQSPLSLPVTPGEPASISCQASESLVHSNRNTYLHWYLQKPGQSPQLLIYKVSNRFSGVPDRFSGSGSGTDFTLKISRVEAEDVGVYYCSQNTHVPPTFGQGTKVEIERTVAAPSVFIFPPSDEQLKSGTASVVCLLNNFYPREAKVQWKVDNALQSGNSQESVTEQDSKDSTYSLSSTLTLSKADYEKHKVYACEVTHQGLSSPVTKSFNRGEC |
| 152 % of HeCon Ab GpH7-A5/GpH7-B3/GpL16-k0 | GpH7-A5/GpH7-B3 variant G237_15Y/GpL16-k0 (antibody, human IgG1, kappa, also called He Ab G237_15Y) heavy 1: not shown heavy 2: not shown light: DIVMTQSPLSLPVTPGEPASISCQASESLVHSNRNTYLHWYLQKPGQSPQLLIYKVSNRFSGVPDRFSGSGSGTDFTLKISRVEAEDVGVYYCSQNTHVPPTFGQGTKVEIERTVAAPSVFIFPPSDEQLKSGTASVVCLLNNFYPREAKVQWKVDNALQSGNSQESVTEQDSKDSTYSLSSTLTLSKADYEKHKVYACEVTHQGLSSPVTKSFNRGEC |
| 199 % of HeCon Ab GpH7-A5/GpH7-B3/GpL16-k0 | GpH7-A5/GpH7-B3 variant K326_07I/GpL16-k0 (antibody, human IgG1, kappa, also called He Ab K326_07I) heavy 1: not shown heavy 2: not shown light: DIVMTQSPLSLPVTPGEPASISCQASESLVHSNRNTYLHWYLQKPGQSPQLLIYKVSNRFSGVPDRFSGSGSGTDFTLKISRVEAEDVGVYYCSQNTHVPPTFGQGTKVEIERTVAAPSVFIFPPSDEQLKSGTASVVCLLNNFYPREAKVQWKVDNALQSGNSQESVTEQDSKDSTYSLSSTLTLSKADYEKHKVYACEVTHQGLSSPVTKSFNRGEC |
| 114 % of HeCon Ab GpH7-A5/GpH7-B3/GpL16-k0 | GpH7-A5/GpH7-B3 variant H268_03V/GpL16-k0 (antibody, human IgG1, kappa, also called He Ab H268_03V) heavy 1: not shown heavy 2: not shown light: DIVMTQSPLSLPVTPGEPASISCQASESLVHSNRNTYLHWYLQKPGQSPQLLIYKVSNRFSGVPDRFSGSGSGTDFTLKISRVEAEDVGVYYCSQNTHVPPTFGQGTKVEIERTVAAPSVFIFPPSDEQLKSGTASVVCLLNNFYPREAKVQWKVDNALQSGNSQESVTEQDSKDSTYSLSSTLTLSKADYEKHKVYACEVTHQGLSSPVTKSFNRGEC |
| 114 % of HeCon Ab GpH7-A5/GpH7-B3/GpL16-k0 | GpH7-A5/GpH7-B3 variant G237_10E/GpL16-k0 (antibody, human IgG1, kappa, also called He Ab G237_10E) heavy 1: not shown heavy 2: not shown light: DIVMTQSPLSLPVTPGEPASISCQASESLVHSNRNTYLHWYLQKPGQSPQLLIYKVSNRFSGVPDRFSGSGSGTDFTLKISRVEAEDVGVYYCSQNTHVPPTFGQGTKVEIERTVAAPSVFIFPPSDEQLKSGTASVVCLLNNFYPREAKVQWKVDNALQSGNSQESVTEQDSKDSTYSLSSTLTLSKADYEKHKVYACEVTHQGLSSPVTKSFNRGEC |
| 111 % of HeCon Ab GpH7-A5/GpH7-B3/GpL16-k0 | GpH7-A5/GpH7-B3 variant G237_13S/GpL16-k0 (antibody, human IgG1, kappa, also called He Ab G237_13S) heavy 1: not shown heavy 2: not shown light: DIVMTQSPLSLPVTPGEPASISCQASESLVHSNRNTYLHWYLQKPGQSPQLLIYKVSNRFSGVPDRFSGSGSGTDFTLKISRVEAEDVGVYYCSQNTHVPPTFGQGTKVEIERTVAAPSVFIFPPSDEQLKSGTASVVCLLNNFYPREAKVQWKVDNALQSGNSQESVTEQDSKDSTYSLSSTLTLSKADYEKHKVYACEVTHQGLSSPVTKSFNRGEC |
| 180 % of HeCon Ab GpH7-A5/GpH7-B3/GpL16-k0 | GpH7-A5/GpH7-B3 variant G237_18N/GpL16-k0 (antibody, human IgG1, kappa, also called He Ab G237_18N) heavy 1: not shown heavy 2: not shown light: DIVMTQSPLSLPVTPGEPASISCQASESLVHSNRNTYLHWYLQKPGQSPQLLIYKVSNRFSGVPDRFSGSGSGTDFTLKISRVEAEDVGVYYCSQNTHVPPTFGQGTKVEIERTVAAPSVFIFPPSDEQLKSGTASVVCLLNNFYPREAKVQWKVDNALQSGNSQESVTEQDSKDSTYSLSSTLTLSKADYEKHKVYACEVTHQGLSSPVTKSFNRGEC |
| 106 % of HeCon Ab GpH7-A5/GpH7-B3/GpL16-k0 | GpH7-A5/GpH7-B3 variant I332_14T/GpL16-k0 (antibody, human IgG1, kappa, also called He Ab I332_14T) heavy 1: not shown heavy 2: not shown light: DIVMTQSPLSLPVTPGEPASISCQASESLVHSNRNTYLHWYLQKPGQSPQLLIYKVSNRFSGVPDRFSGSGSGTDFTLKISRVEAEDVGVYYCSQNTHVPPTFGQGTKVEIERTVAAPSVFIFPPSDEQLKSGTASVVCLLNNFYPREAKVQWKVDNALQSGNSQESVTEQDSKDSTYSLSSTLTLSKADYEKHKVYACEVTHQGLSSPVTKSFNRGEC |
| 193 % of HeCon Ab GpH7-A5/GpH7-B3/GpL16-k0 | GpH7-A5/GpH7-B3 variant G237_20W/GpL16-k0 (antibody, human IgG1, kappa, also called He Ab G237_20W) heavy 1: not shown heavy 2: not shown light: DIVMTQSPLSLPVTPGEPASISCQASESLVHSNRNTYLHWYLQKPGQSPQLLIYKVSNRFSGVPDRFSGSGSGTDFTLKISRVEAEDVGVYYCSQNTHVPPTFGQGTKVEIERTVAAPSVFIFPPSDEQLKSGTASVVCLLNNFYPREAKVQWKVDNALQSGNSQESVTEQDSKDSTYSLSSTLTLSKADYEKHKVYACEVTHQGLSSPVTKSFNRGEC |
| 101 % of HeCon Ab GpH7-A5/GpH7-B3/GpL16-k0 | GpH7-A5/GpH7-B3 variant I336_06M/GpL16-k0 (antibody, human IgG1, kappa, also called He Ab I336_06M) heavy 1: not shown heavy 2: not shown light: DIVMTQSPLSLPVTPGEPASISCQASESLVHSNRNTYLHWYLQKPGQSPQLLIYKVSNRFSGVPDRFSGSGSGTDFTLKISRVEAEDVGVYYCSQNTHVPPTFGQGTKVEIERTVAAPSVFIFPPSDEQLKSGTASVVCLLNNFYPREAKVQWKVDNALQSGNSQESVTEQDSKDSTYSLSSTLTLSKADYEKHKVYACEVTHQGLSSPVTKSFNRGEC |
| 103 % of HeCon Ab GpH7-A5/GpH7-B3/GpL16-k0 | GpH7-A5/GpH7-B3 variant I332_02A/GpL16-k0 (antibody, human IgG1, kappa, also called He Ab I332_02A) heavy 1: not shown heavy 2: not shown light: DIVMTQSPLSLPVTPGEPASISCQASESLVHSNRNTYLHWYLQKPGQSPQLLIYKVSNRFSGVPDRFSGSGSGTDFTLKISRVEAEDVGVYYCSQNTHVPPTFGQGTKVEIERTVAAPSVFIFPPSDEQLKSGTASVVCLLNNFYPREAKVQWKVDNALQSGNSQESVTEQDSKDSTYSLSSTLTLSKADYEKHKVYACEVTHQGLSSPVTKSFNRGEC |
| 116 % of HeCon Ab GpH7-A5/GpH7-B3/GpL16-k0 | GpH7-A5/GpH7-B3 variant H268_05P/GpL16-k0 (antibody, human IgG1, kappa, also called He Ab H268_05P) heavy 1: not shown heavy 2: not shown light: DIVMTQSPLSLPVTPGEPASISCQASESLVHSNRNTYLHWYLQKPGQSPQLLIYKVSNRFSGVPDRFSGSGSGTDFTLKISRVEAEDVGVYYCSQNTHVPPTFGQGTKVEIERTVAAPSVFIFPPSDEQLKSGTASVVCLLNNFYPREAKVQWKVDNALQSGNSQESVTEQDSKDSTYSLSSTLTLSKADYEKHKVYACEVTHQGLSSPVTKSFNRGEC |
| 108 % of HeCon Ab GpH7-A5/GpH7-B3/GpL16-k0 | GpH7-A5/GpH7-B3 variant G237_19Q/GpL16-k0 (antibody, human IgG1, kappa, also called He Ab G237_19Q) heavy 1: not shown heavy 2: not shown light: DIVMTQSPLSLPVTPGEPASISCQASESLVHSNRNTYLHWYLQKPGQSPQLLIYKVSNRFSGVPDRFSGSGSGTDFTLKISRVEAEDVGVYYCSQNTHVPPTFGQGTKVEIERTVAAPSVFIFPPSDEQLKSGTASVVCLLNNFYPREAKVQWKVDNALQSGNSQESVTEQDSKDSTYSLSSTLTLSKADYEKHKVYACEVTHQGLSSPVTKSFNRGEC |
| 223 % of HeCon Ab GpH7-A5/GpH7-B3/GpL16-k0 | GpH7-A5/GpH7-B3 variant G237_09D/GpL16-k0 (antibody, human IgG1, kappa, also called He Ab G237_09D) heavy 1: not shown heavy 2: not shown light: DIVMTQSPLSLPVTPGEPASISCQASESLVHSNRNTYLHWYLQKPGQSPQLLIYKVSNRFSGVPDRFSGSGSGTDFTLKISRVEAEDVGVYYCSQNTHVPPTFGQGTKVEIERTVAAPSVFIFPPSDEQLKSGTASVVCLLNNFYPREAKVQWKVDNALQSGNSQESVTEQDSKDSTYSLSSTLTLSKADYEKHKVYACEVTHQGLSSPVTKSFNRGEC |
| 106 % of HeCon Ab GpH7-A5/GpH7-B3/GpL16-k0 | GpH7-A5/GpH7-B3 variant H268_15Y/GpL16-k0 (antibody, human IgG1, kappa, also called He Ab H268_15Y) heavy 1: not shown heavy 2: not shown light: DIVMTQSPLSLPVTPGEPASISCQASESLVHSNRNTYLHWYLQKPGQSPQLLIYKVSNRFSGVPDRFSGSGSGTDFTLKISRVEAEDVGVYYCSQNTHVPPTFGQGTKVEIERTVAAPSVFIFPPSDEQLKSGTASVVCLLNNFYPREAKVQWKVDNALQSGNSQESVTEQDSKDSTYSLSSTLTLSKADYEKHKVYACEVTHQGLSSPVTKSFNRGEC |
